Key:
human CD63 (human) [1] = target: human CD63 (human) (UniProt P08962); test: imaging of stained T47D cells, 10 ug/mL antibody
human CD63 (human) [2] = target: human CD63 (human) (UniProt P08962); test: flow cytometry, HEK293 cells
human CD63 (human) [3] = target: human CD63 (human) (UniProt P08962); test: ECL, U87MG cells; signal < 100 RLU, classed non-binder

human CD63 (human), sequence (P08962 2-238 limits assumed): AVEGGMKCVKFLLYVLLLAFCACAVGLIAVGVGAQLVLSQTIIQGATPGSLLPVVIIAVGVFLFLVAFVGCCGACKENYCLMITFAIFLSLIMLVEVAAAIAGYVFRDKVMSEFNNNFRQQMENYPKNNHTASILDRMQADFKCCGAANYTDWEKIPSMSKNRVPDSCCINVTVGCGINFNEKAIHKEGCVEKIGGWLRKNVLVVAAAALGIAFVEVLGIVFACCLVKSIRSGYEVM

Row | Substance | Total RFU at 4C (human CD63 (human) [1]) [RFU] | Total RFU at 37C (2 h) (human CD63 (human) [1]) [RFU] | S/N (MFI over no-antibody wells) (human CD63 (human) [2]) | binding ratio at 3.7 nM vs NIH3T3 (human CD63 (human) [3]) [fold]
1 | mIgG1 Isotype control (antibody) | -93900 | 57400 |  | 
2 | mIgG2a Isotype control (antibody) | -73400 | 65400 |  | 
3 | Isotype Control 2 (antibody) |  |  | 1.5 | 
4 | Isotype Control 1 (antibody) |  |  | 1.4 | 
5 | Human IgG4 isotype control (antibody) | 138000 | -80500 |  | 4

From patent publication US20210079109A1
